The source of these data is publication PMC4547048.

Substrate in the data set: CC(C)C[C@H](N)C(=O)Nc1ccc([N+](=O)[O-])cc1
The data set is described as follows: purified protein. The class given is biochemical, Anopheles gambiae. To be noted: 1 mM MnCl2, pH 7.5, 10 mM Tris-HCl, 150 mM NaCl, 25 °C.

B1: AnAPN1 (near full-length recombinant, rFL-APN1) (Anopheles gambiae) (protein)
chain: PPYKSSGIYEEEPQLPGASDLSGGVASDEIGVAPAQAVDERYRLPTTSIPIHYDLHLRTEIHRNERTFTGTVGIQLQVVQATDKLVMHNRGLVMSSAKVSSLPNGVTGAPTLIGDVQYSTDTTFEHITFTSPTILQPGTYLLEVAFQGRLATNDDGFYVSSYVADNGERRYLATTQFESTSARMAFPCYDEPGLKATFTVSITHSLSYKAISNMPQKTTTDIETDMRTTFFEKTPAMSTYLLAFVVSDFQLRLSGAQRVYVRPNAFNEATFALEAGVKILKVLDDHLGIPYDTYMPKLDQIAIPDFAAGAMENWGLVTYREQALLFNPAVSTYRGKTNVATTIAHEYAHQWFGNLVSPEWWEYIWLNEGFATLYEFYALDMAYPGQEYWELFNQQVIQYAMGQDGQASTRPMNWNAATPGEISALFDRVAYDKSGSVLNMMRHVLGDDNWKAGLKAYLTDRALQGAVDEQLYAGLQSAIEGKGVLPNGVTVAQIMRTWTNEAGYPVLNVRRSYDTGDVIISQERFYNDRKVPNTNIWMIPYNYVHQAKADFNEFDDFQWLATKAARIETTVPANEWIVFNKQQVGYYRVNYDEHNWELITNALHENWASIHRLNRAQLIDDAYWLARSGRLDLRVALRFMTYLRNEREYAPWTAANVALTYFNNRLRGTAEYHNFLIFVDALIEDIYSLLTIDAVSPDDTLLHKYLVQTISTWACSMGYTDCLMKTAALLKAEASGTGPAVHPDIASVTYCYGMRSALESEFQYLYRKMMNSKNLAERTMLIDSLGCSNNKEFLKAFLTTALGSGTGVEINYRADERRRVVQAIYSGGRTGVDALIEFLMDPALVNEFVSTLSTSTLNSALSAIASRTNNVEEMNKLNALITALGSRVNSQTAANLRTTAQANLDWVNGFEGLMLSNFLAE
By Km is commonly meant the concentration of substrate that gives half-maximal velocity. B1: the Km is 1840 µM.
